The series can be described thus: soluble on expression in E. coli; label from the status in PepcDB or PDB records.
In the case of “MNKKMIFFDIDGTIVDEKTHVIPEGTIAAIKKARSNGHLVFINTGRTFFNVPDSIRQIGFDGYVCGCGTYIHINGQTLLEKSISHKRCVEIVEKLRECKLDALLEGQKDFFFDQREPVSEKTLELKSKFGKRGYDVSKSWDDSDIVFDKFVIWTRKESNLEAFKSHISNDFDYIDREDEEGEFGEIVLKGYSKATGIKFLQDYFNIPIEDCYALGDSLNDLPMLQYVPNSIAMGNSSKGLFDLVAFVTKDIMEDGIEYALKHYNII”, the “soluble on expression in E. coli” value was “not soluble”.
Regarding “MGSDKIHHHHHHMIYLKIIRGFFSALREHPQSQSIPVIFVSALDETANQIQGLQGGAIDYLVKPVQPDILKLRLANLLATVNLQRDLQANYDNMLELSRLRDCVDELIHHDLKSPLSAISAMLQRLSQDKSCPKGWRSKLTAIHDLTMQSINTVNLSSEIFKIETGRFILKPERFSAHGLVKQVLHSMHVTFHHKQLIAFQFPDEDPNGQFDVLADETLTYSLLLNLIKNAFEASTMRTKVAIHLSIEQGNVVIQIENSGVVPEHIRPRFWDKYVTSQKEEGAGLGTYSACLLAKAQGGTTQLQVDDLQNKTIVTVCLPAAT”, the “soluble on expression in E. coli” value is “not soluble”.
Turning to “SMEEKLENEPDFQYIPEKAPLDSVHQDDHSLRESMIQLAEGLITGTVLTQFDQLYRKKPGMTMSCAKLPQNISKNRYRDISPYDATRVILKGNEDYINANYINMEIPSSSIINQYIACQGPLPHTCTDFWQMTWEQGSSMVVMLTTQVERGRVKCHQYWPEPTGSSSYGCYQVTCHSEEGNTAYIFRKMTLFNQEKNESRPLTQIQYIAWPDHGVPDDSSDFLDFVCHVRNKRAGKEEPVVVHCSAGIGRTGVLITMETAMCLIECNQPVYPLDIVRTMRDQRAMMIQTPSQYRFVCEAILKVYEEGFVKPLTTSTNKLT”, the “soluble on expression in E. coli” value is listed as “soluble”.
As for “MIMNHMPKKIVIIGAGAGGGISLSQLRRALSNEDVEITIIDQTGRTDFQPSYVFLALGEKKPEEISRDISQLNDSRVRAVKDTVISVDAANRVVKTSGGSYQYDYLIMSPGPSIDPSSLKGHEATHSVWTMEDSLRLRDAVKNFKGGNVLISVSTQWYKCPPVPWEMALLLDDYFRRKNIRDKVKITVAHPVSRPMEMYGPGLSEPFSKMLDDRNIEGIYGRRVSSVDAEKKRAIMDNGETVGFDLSIVAPPHLPPDFIKNNDDLRSPRGWAATNIRDFRNPKYEDVFAIGDVIAPTIQIGMAGVLAHFQADTVSSAIAEEIAGYPFMEYNKVAVCIIATGGSGVFSYCDLAGKLTDPKVKFPECRMIGNDPLFRFAHDLYEVNFLSSIYGSRLEHHHHHH”, the “soluble on expression in E. coli” value was “not soluble”.
To “MPVDLSKWSGPLSLQEVDEQPQHPLHVTYAGAAVDELGKVLTPTQVKNRPTSISWDGLDSGKLYTLVLTDPDAPSRKDPKYREWHHFLVVNMKGNDISSGTVLSDYVGSGPPKGTGLHRYVWLVYEQDRPLKCDEPILSNRSGDHRGKFKVASFRKKYELRAPVAGTCYQAEWDDYVPKLYEQLSGK” belongs “soluble”; to “MGSDKIHHHHHHMLKEAISYSIADESVRIVQVTDPHLFADPEAQLLGVNTSKSLAAVLNTIRAVNYPAHLLLATGDLSQDYSPESYRQFVSAVAPLNLPCHYLPGNHDDPRIMFLHMQGERVFGQQRILVGKWQILMLDSTVRGKPGGHMGEGQFELIEQAIAAHPEHHTLLVMHHNPILVNCAWLDQHCMDNGAEFLRRVAQYPQVKALLWGHVHQQLDTYYDGPHRALQLMATPSTCIQFKPQSPYFALDGLQPGYRLLELKADGSISTNVYRVPGNLFSPDKDSSGY”, “not soluble”; to “AHHHHHHGSKNLYLPITIDHIARVEGKGGVEIIIGDDGVKEVKLNIIEGPRFFEAITIGKKLEEALAIYPRICSFCSAAHKLTALEAAEKAVGFVPREEIQALREVLYIGDMIESHALHLYLLVLPDYRGYSSPLKMVNEYKREIEIALKLKNLGTWMMDILGSRAIHQENAVLGGFGKLPEKSVLEKMKAELREALPLAEYTFELFAKLEQYSEVEGPITHLAVKPRGDAYGIYGDYIKASDGEEFPSEKYRDYIKEFVVEHSFAKHSHYKGRPFMVGAISRVINNADLLYGKAKELYEANKDLLKGTNPFANNLAQALEIVYFIERAIDLLDEALAKWPIKPRDEVEIKDGFGVSTTEAPRGILVYALKVENGRVSYADIITPTAFNLAMMEEHVRMMAEKHYNDDPERLKILAEMVVRAYDPCISCSVHVVRL”, “soluble”.
For the sequence “MGSDKIHHHHHHMRVASERLILGDRITESLFLHTDIPIVEAGKKIGADELRRIKRFLIKEVDIEKRPEGMSEASMMDQELDDMIEDSIFDSLIETYNQVFTSWEQGLVPNVYDALRWVKESMPETMRRDDILPYFLERGTEAYTVRHAIYRGAIAQLLAEAAGKERKMIHDLWVASYFADCGLARIMEWRHTKRYEAMQQEIFHRHPAMAFQALQKENIISDTVKRLIVQHHERLDGSGYPLKVKGDKIMDHTRLFIVADVFAAMTSWRPYREAYKVYDAYCHLKARPMQYDSKYVMLLGQLLLPIEPGDRVLMSNGKIATVLRKNSIFDRPVIAYEEHNRRIVKDLMEDRQLNIIQLMD”, the “soluble on expression in E. coli” value is recorded as “not soluble”.
Take “YIKYFNDKTIDEELERDKRVTWIVEFFANWSNDCQSFAPIYADLSLKYNCTGLNFGKVDVGRYTDVSTRYKVSTSPLTKQLPTLILFQGGKEAMRRPQIDKKGRAVSWTFSEENVIREFNLNEL”: the “soluble on expression in E. coli” value is “soluble”.
To “MGHHHHHHSNKIERIIARLQRRIAEGQPEEQYEAAQETRLVAARYSKQGNWAAAVDILASVSQTLLRSGQGGSGGDLAVLLVDTFRQAGQRVDGASRGKLLGCLRLFQPGEPVRKRFVKEMIDWSKKFGDYPAGDPELHHVVGTLYVEEGEFEAAEKHLVLGTKESPEVLARMEYEWYKQDESHTAPLYCARAVLPYLLVANVRAANTAYRIFTSALVEDNKGLTVQNIGSQSAELRIFPSLPLLNFISMLLLSVQKGSPDLFRQLKSKYEANLNELNGIWDTALELIAEMYFGIQRPRQSNPLLDMMGSLFGGGGGAPSKAALRRIDTPAAEGLD” belongs “soluble”; to “MSEQLVTPENVTTKDGKINLLDLNRQQMREFFKDLGEKPFRADQVMKWMYHYCCDNFDEMTDINKVLRGKLKEVAEIRAPEVVEEQRSSDGTIKWAIAVGDQRVETVYIPEDDRATLCVSSQVGCALECKFCSTAQQGFNRNLRVSEIIGQVWRAAKIVGAAKVTGQRPITNVVMMGMGEPLLNLNNVVPAMEIMLDDFGFGLSKRRVTLSTSGVVPALDKLGDMIDVALAISLHAPNDEIRDEIVPINKKYNIETFLAAVRRYLEKSNANQGRVTIEYVMLDHVNDGTEHAHQLAELLKDTPCKINLIPWNPFPGAPYGRSSNSRIDRFSKVLMSYGFTTIVRKTRGDDIDAACGQLAGDVIDRTKRTLRKRMQGEAIDIKAV”, “soluble”.
Then “MAPKKVLLALTSYNDVFYSDGAKTGVFVVEALHPFNTFRKEGFEVDFVSETGKFGWDEHSLAKDFLNGQDETDFKNKDSDFNKTLAKIKTPKEVNADDYQIFFASAGHGTLFDYPKAKDLQDIASEIYANGGVVAAVCHGPAIFDGLTDKKTGRPLIEGKSITGFTDVGETILGVDSILKAKNLATVEDVAKKYGAKYLAPVGPWDDYSITDGRLVTGVNPASAHSTAVRSIDALKN”, with “soluble”.
With “MAGDIILRVEDLEKRFGGIVALDKVNLEIERGKVTLLIGPNGSGKTTLVNVISGFYKPDGGRVLFKGRDITGMSPHEISKLGLVRTFQIPKPFTNLTVLENVLTAADSPGENVYLAGLARRLWLGFEKRAAARAFEILGWVGLDHMWDRRSGELSGGQMKLLEIARAIMKGAEMIIMDEPAAGVNPRLAGSIMERIKYLAREKGITFLIIEHRIGLVKEYVDRVYAMSMGKVIASGKPDEVLNNPVVLESYLGG”, the “soluble on expression in E. coli” value is on record as “soluble”.
Then “MSSPGGGTRFALVAGTTETAGRAGISAAGADPELMSVTPAADAELVTYGTPVRTDVTPVSPSGCPTPALVTRAAREVLGFDVTVVDGGLAEKTGAPTVSVGARPGKDIAEQDPVSTAHGAFAAARQFGQSLPADELYLGETIPGGTTTALGVLRALGEDGMVSSSLPENPTAQKSEVVAEGLQASSLEPGDAANEPKRAVRRMGDPVLATLAGLTAGAVESDTAVTLAGGSQCVAVAALVRHGGYEGPLGLATTSYVADDESADVRASVDRLDLDLTVTDPGFDRSDHVAMERFVAGEAKEGVGMGGALALADRAGIPMAEVRDRFAAIYDDLIGDAPTATAEERT”, with “not soluble”; and “GSKVVKFSYMWTINNFSFCREEMGEVIKSSTFSSGANDKLKWCLRVNPKGLDEESKDYLSLYLLLVSCPKSEVRAKFKFSILNAKGEETKAMESQRAYRFVQGKDWGFKKFIRRGFLLDEANGLLPDDKLTLFCEVSVVQDSVNISGQNTMNMVKVPECRLADELGGLWENSRFTDCCLCVAGQEFQAHKAILAARSPVFSAMFEHEMEESKKNRVEINDVEPEVFKEMMCFIYTGKAPNLDKMADDLLAAADKYALERLKVMCEDALCSNLSVENAAEILILADLHSADQLKTQAVDFINYHATDVLETSG”, with “soluble”.
To “MGSDKIHHHHHHMIENLNGIHETVKYKEYSNVKLFINAEAEDYPIHWHTPMEIIMPLEGGYTVQIGDDLVHLNENDIIFIASGVKHRLIAPDTGKRLILQIEWSAVSKIKELNSILTLIAPAITLTPETSGDIHSNIRKLLLDISNEYQTDSFLSEAVIYSKILEVLVLIGRHHTASSCHFNVGRHKQQEYLERFLSICEYIDTHCTEDITLDEIAKIAGFSKYHFTRLFKQFTNNTFYKYLNQKRIELALTLLADPNISVTETAMQSGFANPSTFIRVFKTEKGCTPTEFRKMFIG” belongs “not soluble”.
To “MGSDKIHHHHHHMNELQNFNFEGNEVRTVLINDEPYFVGKDVATAIGYQNTRKAIKDHVKTKYMREERIVTPSGTQTMTVISEPGIYQLAGQSKLPTAEPFQDWIYEEVLPSIRKHGAYMTDEKIEEALLNPDTIISLATQLKNEREKVEVERNGRLIAEQRVEELQPKADYYDQILSNKGVVTVTSIAKNYGMTAPELNKLLNRLGVQYSQSGSWYLYKKYQKNGYTHTIPVPYSHRDGRPDIKPQTKWTQKGHIFIYQLLKEHGILPMIEMKDESAV” belongs “not soluble”; to “MDPVFDFEDALDQTEMAQLAVDELKKIPEVNTLFAERWLPAPFNLDDLAKLPEGTLGHVYAIEMKARGFDPYFYKKVPVVDDISYLKMLWRSTHDIYHVVAGFDTDGIGEIGLQAFVLAQTPIPISVMLVSFGMVMTSLYQPAKFQDLMAEIARGYSLGSHTPRKLIAQKWDQFWDVPVIEIRECLGMNTVKQRERALEHHHHHH”, “soluble”.
Regarding “MSLLLENCKLETGFSTVNQRIVATETASYDIRIENEVCTAVAPQLRPLENETVIDVNQQLVLPALREMHIHIDKTYFGGPWKACRPLTKGILTRIEEETWLLPEQLPTSLERACQVIEQYIQQGHYHIRSHCNVDPSIGTKHIEITKEAFSRYEQYITHEIVAFPQHGLLRSQVEPLMREALRMGATHVGGVDPALVDRHVDHSIAKIFELATTFNKKIDVHLHARDTLGLYEFNKFVDYTEQAKMFGKVTLSHALALGSLEEAAIRDIAQKFIETGIDLTSTVPIGMPTMPIPTLVEQGVKISVAHDSLTDHWSPFGSGNTIEKLNTAAQRFKISDEYRLNRLWGLASNFVTPLDPNGQQVWPNVGDSADFLLFNAESTAHVIARQQPIQQLILKGQLVEAVQKGEKEEGHHHHHH”, the “soluble on expression in E. coli” value was “soluble”.

Source of the values: the DeepSol protein solubility set.
